This is an account of results in patent US20220089722A1 (NANTONG YICHEN BIOPHARMA, published 2022).

The target of test [1] is T1, EGFR on F98-EGFR cells (UniProt P00533 25-1210, limits assumed). Briefly: cell-based or functional assay.
Test [2] deals with T1, EGFR on F98-EGFR cells. As to the kind of experiment: flow cytometry on F98-EGFR cells. On the procedure:
F98-EGFR cells (a DMEM containing 10% FBS, 200 μg/ml G418) were cultured. 2×10⁵ cells were washed by precooled PBS for 3 times, and blocked by 2% FBS (soluble to PBS). IgFD-8, IgFD-9, IgFD-10, IgFD-11, IgFD-18, IgFD-19, IgFD-25, IgFD-26 or IgFD-31 (aEGFR expressed in a laboratory as a control) was added and incubated for 2 h at 4° C. (cells were gently mixed during incubation), unbounded antibodies were washed by 2% FBS (soluble to PBS), and then the remaining cells were incubated by FITC anti-human IgGFc(KPL, Inc., MD) for 1 h at 4° C., and washed by 2% FBS (soluble to PBS) for flow cytometry analysis. As shown in FIG. 7 and Table 4, the anti-CD3/anti-EGFR heterodimers in different forms of fusion could bind to EGFR on F98-EGFR cells, and there was no significant difference in the binding capacity of different heterodimers to F98-EGFR.

Test [3] concerns the target T2, CD3 on T cells (Jurkat T cells; PBMC-T cells).
T2 construct: whole, on cells; the target is inferred from the anti-CD3 arm of the constructs
Briefly: flow cytometry on activated T cells from PBMCs (PBMC-T). How it is done: Peripheral blood of healthy volunteers was collected, and Ficoll-Hypaque(GE Healthcare) was used to separate peripheral blood monouclear cells (PBMCs) via gradient centrifugation. The purified PBMCs were resuspended in RPMI 1640/10% FBS complete medium. PBMCs were incubated with immobilized anti-CD3 (Clone OKT3, eBiosciences), and 2 μg mL anti-CD28 (Clone CloneCD28.2, eBiosciences) at 37° C. for 48 h. The activated T cells were then expanded for 10d with 20 U/ml IL2(R&D Systems). 2×10⁵ cells were washed by precooled PBS for 3 times, and blocked by 2% FBS (in PBS), and then incubated with IgFD-8, IgFD-18 or IgFD-19 at different concentrations (25 nM, 7.5 nM, 2.5 nM, 0.75 nM or 0.25 nM) for 1 h at 4° C. (cells were gently mixed during incubation). Unbounded antibodies were washed by 2% FBS (in PBS), and the cells were incubated with FITC anti-human IgGFc (KPL, Inc., MD) for 1 h at 4° C. (cells were gently mixed during incubation). The cells were subjected for flow cytometry analysis after the unbounded antibodies were washed by 2% FBS (in PBS).

T2 sequence (P07766 23-207): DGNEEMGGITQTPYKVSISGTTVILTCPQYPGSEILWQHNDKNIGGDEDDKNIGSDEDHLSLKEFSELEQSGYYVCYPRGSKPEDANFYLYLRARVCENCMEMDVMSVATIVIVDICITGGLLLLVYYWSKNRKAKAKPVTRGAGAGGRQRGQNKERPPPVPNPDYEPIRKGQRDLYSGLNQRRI

B1: IgFD-8 (bispecific antibody, human IgG1, kappa)
chain 1: EVQLVESGGGLVQPGGSLRLSCAASGFTFNTYAMNWVRQAPGKGLEWVARIRSKYNNYATYYADSVKDRFTISRDDSKNTLYLQMNSLRAEDTAVYYCVRHGNFGNSYVSWFAYWGQGTLVTVSSASTKGPSVFPLAPSSKSTSGGTAALGCLVKDYFPEPVTVSWNSGALTSGVHTFPAVLQSSGLYSLSSVVTVPSSSLGTQTYICNVNHKPSNTKVDKKVEPKSCDKTHTCPPCPAPPVAGPSVFLFPPKPKDTLMISRTPEVTCVVVDVSHEDPEVKFNWYVDGVEVHNAKTKPREEQYNSTYRVVSVLTVLHQDWLNGKEYKCKVSNKGLPSSIEKTISKAKGQPREPQVYTLPPSRDELTKNQVSLTCLVKGFYPSDIAVEWESNGQPENNYKTTPPVLDSDGSFFLYSKLTVDKSRWQQGNVFSCSVMHEALHNHYTQKSLSLSPGK
chain 2: QAVVTQEPSLTVSPGGTVTLTCRSSTGAVTTSNYANWVQQKPDHLFRGLIGGTNKRAPGTPARFSGSLLGDKAALTISGAQPEDEAEYYCALWYSNLWVFGGGTKLTVLKRTVAAPSVFIFPPSDEQLKSGTASVVCLLNNFYPREAKVQWKVDNALQSGNSQESVTEQDSKDSTYSLSSTLTLSKADYEKHKVYACEVTHQGLSSPVTKSFNRGECDKTHTCPPCPAPPVAGPSVFLFPPKPKDTLMISRTPEVTCVVVDVSHEDPEVKFNWYVDGVEVHNAKTKPREEQYNSTYRVVSVLTVLHQDWLNGKEYKCKVSNKGLPSSIEKTISKAKGQPREPQVYTLPPSRDELTKNQVSLTCLVKGFYPSDIAVEWESNGQPENNYKTTPPVLDSDGSFFLYSKLTVDKSRWQQGNVFSCSVMHEALHNHYTQKSLSLSPGKGGSGGSGGGGSGGGGSDIQMTQSPSSLSASVGDRVTITCQASQDISNYLNWYQQKPGKAPKLLIYDASNLETGVPSRFSGSGSGTDFTFTISSLQPEDIATYFCQHFDHLPLAFGGGTKVEIKGGGGSGGGGSGGGGSQVQLQESGPGLVKPSETLSLTCTVSGGSVSSGDYYWTWIRQSPGKGLEWIGHIYYSGNTNYNPSLKSRLTISIDTSKTQFSLKLSSVTAADTAIYYCVRDRVTGAFDIWGQGTMVTVSS
Consider B1, for which the “Promotion for the specific killing effect of PBMCs on target cells by heterodimers (EC50, pM); F98-EGFR cells, LDH assay” value in test [1] worked out at 766 pM. Also, the Kd in test [2] came out at 3.12 nM; in test [3] it was 3.74 nM.
